Measurements: article PMC4313098, “Mesencephalic Astrocyte-Derived Neurotrophic Factor Is Involved in Inflammation by Negatively Regulating the NF-κB Pathway” (Scientific Reports, 2015)

Target: T1, p65-N2-His (amino acids 1-190) (UniProt Q04206 1-190)
T1 construct: NF-κB p65, N-terminal 190 residues, subcloned into pET28a; also called p65-N2-6 × His; 6 × His-tagged p65-N2 fragment; source: E. coli, purified
Test: pull-down; in vitro: purified GST-fused MANF (or truncate, or GST) pre-bound to glutathione-agarose; purified p65-N2-6xHis loaded in 50 mM Tris-HCl pH 7.5, 100 mM NaCl, 0.1% Triton X-100, 1 hr at 4°C; eluted with 500 mM NaCl; blot with anti-His
Details: both partners purified

T1 sequence (Q04206 1-190): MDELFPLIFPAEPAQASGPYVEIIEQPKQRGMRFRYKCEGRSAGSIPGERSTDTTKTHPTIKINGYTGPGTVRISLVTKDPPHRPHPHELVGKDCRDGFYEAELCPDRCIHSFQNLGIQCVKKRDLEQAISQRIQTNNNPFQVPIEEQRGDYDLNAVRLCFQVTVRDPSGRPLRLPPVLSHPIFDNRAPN

B1: MANF-D3-GST (C-terminal SAP-like domain, amino acids 96-182) (domain or fragment, human, UniProt P55145 96-182, looked up)
chain: LAHHIPVEKICEKLKKKDSQICELKYDKQIDLSTVDLKKLRVKELKKILDDWGETCKGCAEKSDYIRKINELMPKYAPKAASARTDL
- binding result: binds
